25 molecules from US20210032331A1 (PHANES THERAPEUTICS, published 2021) can be followed below.

Numbering of substitutions follows the chain as printed.

T1: human LAG-3(ECD)-mFc (human, UniProt P18627 23-450)
T1 construct: also called hLAG3-mFc; human LAG-3 extracellular domain (ECD) fused to mouse Fc; not shown: mouse Fc
T1 sequence: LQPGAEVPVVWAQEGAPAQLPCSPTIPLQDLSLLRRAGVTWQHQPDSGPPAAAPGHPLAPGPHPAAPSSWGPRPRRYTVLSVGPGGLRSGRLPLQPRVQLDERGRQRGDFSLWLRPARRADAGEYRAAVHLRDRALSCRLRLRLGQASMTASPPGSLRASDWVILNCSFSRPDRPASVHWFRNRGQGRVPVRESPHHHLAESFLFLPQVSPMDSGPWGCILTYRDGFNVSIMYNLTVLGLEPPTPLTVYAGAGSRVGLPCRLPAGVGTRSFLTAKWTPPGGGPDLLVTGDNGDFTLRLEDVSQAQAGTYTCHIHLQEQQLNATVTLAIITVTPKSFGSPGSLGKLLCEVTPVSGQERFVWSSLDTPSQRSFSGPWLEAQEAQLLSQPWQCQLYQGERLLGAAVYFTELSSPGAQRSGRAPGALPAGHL

B1: B7(H4L5) (antibody, V domains shown)
VH: EVQLVQSGAEVKKPGASVKVSCKASGYTFSDYNLNWVRQAPGQTLEWMGLINLDSAATVYNQKFKGKATMTRDQSTSTAYMELSSLRSEDTAVYYCASYDYWGQGTLVTVSS
VL: DIQMTQSPSSLSASVGDRVTITCRASQDISHYLNWFQQKPGKAPKLLIYETSTLDFGVPSRFSGSGSGTDFTFTISSLQPEDIATYYCLQYATYPLTFGGGTKVEIK
notes: Humanized VH and VL fused to constant regions of human IgG4 heavy chain and kappa light chain; also called humanized B7 with B7/H4 heavy chain and B7/L5 light chain
B2: B7(H6L8) (antibody, V domains shown)
VH: B1 VH with V2F, T28S, R72I
VL: B1 VL with L46R
notes: Humanized VH and VL fused to constant regions of human IgG4 heavy chain and kappa light chain; also called humanized B7 with B7/H6 heavy chain and B7/L8 light chain
B3: B7(H5L5) (antibody, V domains shown)
VH: B1 VH with T28S, R72I
VL: B1 VL
notes: Humanized VH and VL fused to constant regions of human IgG4 heavy chain and kappa light chain; also called humanized B7 with B7/H5 heavy chain and B7/L5 light chain
B4: B7(H3L8) (antibody, V domains shown)
VH: B1 VH with T44G, Q74T, A79V
VL: B1 VL with L46R
notes: Humanized VH and VL fused to constant regions of human IgG4 heavy chain and kappa light chain; also called humanized B7 with B7/H3 heavy chain and B7/L8 light chain
B5: B7(H1L8) (antibody, V domains shown)
VH: B1 VH with T44G, K67R, A68V, Q74T, A79V
VL: B1 VL with L46R
notes: Humanized VH and VL fused to constant regions of human IgG4 heavy chain and kappa light chain; also called humanized B7 with B7/H1 heavy chain and B7/L8 light chain
B6: B7(H4L8) (antibody, V domains shown)
VH: B1 VH
VL: B1 VL with L46R
notes: Humanized VH and VL fused to constant regions of human IgG4 heavy chain and kappa light chain; also called humanized B7 with B7/H4 heavy chain and B7/L8 light chain
B7: B7(H2L5) (antibody, V domains shown)
VH: B1 VH with K67R, A68V, Q74T, A79V
VL: B1 VL
notes: Humanized VH and VL fused to constant regions of human IgG4 heavy chain and kappa light chain; also called humanized B7 with B7/H2 heavy chain and B7/L5 light chain
B8: B7(H2L8) (antibody, V domains shown)
VH: B1 VH with K67R, A68V, Q74T, A79V
VL: B1 VL with L46R
notes: Humanized VH and VL fused to constant regions of human IgG4 heavy chain and kappa light chain; also called humanized B7 with B7/H2 heavy chain and B7/L8 light chain
B9: B7(H3L5) (antibody, V domains shown)
VH: B1 VH with T44G, Q74T, A79V
VL: B1 VL
notes: Humanized VH and VL fused to constant regions of human IgG4 heavy chain and kappa light chain; also called humanized B7 with B7/H3 heavy chain and B7/L5 light chain
B10: B7(H5L8) (antibody, V domains shown)
VH: B1 VH with T28S, R72I
VL: B1 VL with L46R
notes: Humanized VH and VL fused to constant regions of human IgG4 heavy chain and kappa light chain; also called humanized B7 with B7/H5 heavy chain and B7/L8 light chain
B11: B7(H1L5) (antibody, V domains shown)
VH: B1 VH with T44G, K67R, A68V, Q74T, A79V
VL: B1 VL
notes: Humanized VH and VL fused to constant regions of human IgG4 heavy chain and kappa light chain; also called humanized B7 with B7/H1 heavy chain and B7/L5 light chain
B12: B7(H6L5) (antibody, V domains shown)
VH: B1 VH with V2F, T28S, R72I
VL: B1 VL
notes: Humanized VH and VL fused to constant regions of human IgG4 heavy chain and kappa light chain; also called humanized B7 with B7/H6 heavy chain and B7/L5 light chain
B13: B5(H3L2) (antibody, V domains shown)
VH: QVQLVQSGAVVKKPGASVKMSCKASGYTFTGYYMNWMRQAPGQSLEWLAVINPYNGDTAYNRKFKGRATLTVDKSTSTAYMELSSLRSEDTAVYYCARDDGYHVRFFDVWGQGTTVTVSS
VL: DIQMTQSPSSLSASVGDRVTITCRSSQDISDYLSWLQQKPGGAIKSLIYSTSTLDSGVPSRFSGSRSGTDFTLTISSLQPEDFATYYCLQYASSPPTFGGGTKVEIK
notes: Humanized VH and VL fused to constant regions of human IgG4 heavy chain and kappa light chain; also called humanized B5 with B5/H3 heavy chain and B5/L2 light chain
B14: B5(H3L3) (antibody, V domains shown)
VH: B13 VH
VL: B13 VL with F71Y
notes: Humanized VH and VL fused to constant regions of human IgG4 heavy chain and kappa light chain; also called humanized B5 with B5/H3 heavy chain and B5/L3 light chain
B15: B5(H2L2) (antibody, V domains shown)
VH: B13 VH with V10E, A49G, A68V
VL: B13 VL
notes: Humanized VH and VL fused to constant regions of human IgG4 heavy chain and kappa light chain; also called humanized B5 with B5/H2 heavy chain and B5/L2 light chain
B16: B5(H4L1) (antibody, V domains shown)
VH: B13 VH with V5R, P41H, A97V
VL: B13 VL with I44P
notes: Humanized VH and VL fused to constant regions of human IgG4 heavy chain and kappa light chain; also called humanized B5 with B5/H4 heavy chain and B5/L1 light chain
B17: B5(H1L4) (antibody, V domains shown)
VH: B13 VH with V10E, M37V, A49G, A68V, A79V
VL: B13 VL with S46R, S60K, T69S, F71Y
notes: Humanized VH and VL fused to constant regions of human IgG4 heavy chain and kappa light chain; also called B5(HIL4); humanized B5 with B5/H1 heavy chain and B5/L4 light chain
B18: B5(H3L1) (antibody, V domains shown)
VH: B13 VH
VL: B13 VL with I44P
notes: Humanized VH and VL fused to constant regions of human IgG4 heavy chain and kappa light chain; also called humanized B5 with B5/H3 heavy chain and B5/L1 light chain
B19: B3C (antibody, V domains shown)
VH: QVQLQQPGAELLKPGASVKMSCKASGYTFTSYDIHWLKQTPGQGLEWIGAIYPENGDSSYSQKFKDKATLTADKSSNTAYIHLSSLTSEDSAVYYCARGGYYDYVWFPYWGQGTLVTVSA
VL: DVVMTQTPLSLPVSLGDQASISCRSSQSILYSNGYTYLEWYLQKPGQSPKLLIYGVSNRFSGVPDRFSGSGSGTDFTLKISRVESEDMGVYYCFQGTHVPLTFGAGTKLELK
notes: Chimeric: mouse VH and VL fused to constant regions of human IgG1 heavy chain and kappa light chain; also called the chimeric version of mouse mAb B3; B3 (human IgG1 heavy chain and kappa light chain chimeric)
B20: B4C (antibody, V domains shown)
VH: B19 VH with D66G, Y102F
VL: B19 VL with L30V, S85A
notes: Chimeric: mouse VH and VL fused to constant regions of human IgG1 heavy chain and kappa light chain; also called the chimeric version of mouse mAb B4; B4 (human IgG1 heavy chain and kappa light chain chimeric)
B21: B9C (antibody, V domains shown)
VH: EVQLRQSGPVLVKPGASVKMSCKASGYTFTGYYMNWVKQSHGKSLEWLAVINPYNGDTAYNRKFKGRATLTVDKSSSTAYMELNRLTSEDSAVYYCVRDDGYHVRYFDVWGTGTTVTVSS
VL: DIQMTQSPSSLSASLGERVSLTCRASQDISDSLCWLQQKPDGTIKRLIYSTSTLDSGVPKRFSGSRSGSDYSLTISSLESEDFADYYCLQYASSPPTFGGGTKLEIK
notes: Chimeric: mouse VH and VL fused to constant regions of human IgG1 heavy chain and kappa light chain; also called the chimeric version of mouse mAb B9
B22: B11C (antibody, V domains shown)
VH: EVQLQQSGPVLVRPGASVKMSCKASGYTFTNYYMNWVKQSHGKSLEWIGVINPYNGDIAYSQKFKGKATLTVDKSSSTAYMELKSLTSEDSAVYYCARDDGYYVYYFDCWGQGTTLTVSS
VL: B21 VL with S30G, D31G, C34N, Y91N, S93N
notes: Chimeric: mouse VH and VL fused to constant regions of human IgG1 heavy chain and kappa light chain; also called the chimeric version of mouse mAb B11
B23: B7C (antibody, V domains shown)
VH: EFQLQQSGPELVKPGASVKISCKASGYSFSDYNLNWVKQSNGKTLEWIGLINLDSAATVYNQKFKGKATLTIDQSSTTAYMQLNSLTSDDSAVYYCASYDYWGQGTTLTVSS
VL: DIQMTQSPSSLSASLGERVSLSCRASQDISHYLNWFQQKPDGTFKRLIYETSTLDFGVPKRFSGSRSGSDYSLTIGSLESEDFADYYCLQYATYPLTFGAGTKLELK
notes: Chimeric: mouse VH and VL fused to constant regions of human IgG1 heavy chain and kappa light chain; also called the chimeric version of mouse mAb B7
B24: B10C (antibody, V domains shown)
VH: EFQLQQSGPELVKPGASVKISCKASGYSFTDYNLNWVKESNGKSLEWIGLITLDYGTTIYNQKFKGKATLTVDQSSSIAYMQLNSLTSDDSAVYYCACYDYWGQGTTLTVSS
VL: B23 VL with S22T, H31N, E50A, G76S, T93S
notes: Chimeric: mouse VH and VL fused to constant regions of human IgG1 heavy chain and kappa light chain; also called the chimeric version of mouse mAb B10
B25: B1C (antibody, V domains shown)
VH: DVQLQESGPGLVKPSQSLSLTCTVTGYSITSDYAWNWIRQFPGNKLEWMGYIDYSGITSYNPSLKSRISITRDTSKNQFFLQLNSVTTEDTATYYCAREDHYDLAWFAYWGQGTLVTVSA
VL: DIQMTQTTSSLSASLGDRVTISCRASQDISNYLNWYQQKPDGTVKLLIYYTSRLHSGVPSRFSGSGSGTDYSLTISNLEPEDIATYYCHQYSNRPPTFGGGTKLEIK
notes: Chimeric: mouse VH and VL fused to constant regions of human IgG1 heavy chain and kappa light chain; also called the chimeric version of mouse mAb B1

The first experiment addresses T1, human LAG-3(ECD)-mFc. In words: FACS competition: mAb preincubated with human LAG-3(ECD)-mFc (1 ug/ml); binding to MHC class II on Daudi cells detected with anti-mouse Fc-PE. On the procedure: (§1) Human Daudi cells were cultured in RPMI+10% FBS. Human LAG-3(ECD)-mFc protein (human LAG-3 ECD fused to mouse Fc) at 1 μg/ml final concentration was incubated with purified mouse, humanized, or chimeric anti-LAG-3 mAbs at various concentrations for 15 minutes at 4° C. The mixture was then added to 100,000 human Daudi cells in a 96-well round bottom plate, mixed and incubated for 15 minutes on ice. Cells were then centrifuged at 1,000 rpm for 5 minutes and washed with FACS buffer (PBS supplemented with 5% BSA) three times. The cells were then incubated with PE-conjugated goat anti-mouse Fc polyclonal antibodies on ice for 15 minutes, washed with FACS buffer three times and then resuspended in FACS buffer containing 0.1 μg/ml PI (propidine iodine) for live/dead cell gating. Cells were then run through the FACS Caliber instrument and the data were analyzed by the Flowjo software. Results of the inhibition of LAG-3 binding to Daudi cells by chimeric mAbs B1C, B3C, B4C, BSC, B9C, and B11C are shown in FIG. 4B.
The mouse anti-hLAG-3 mAbs B5 and B7 were humanized to reduce the potential of immunogenicity when used in human patients. The CDRs in both the heavy and light chains of the mouse mAb were grafted into human framework that have the highest possibility of maintaining the proper structure required for antigen binding. Backmutations from human reside to mouse residue were designed when necessary. The sequences of the humanized VH and VL regions are shown in Table 11 and Table 12, respectively. The humanized VH and VL regions were fused to the constant regions of human IgG4 heavy chain and kappa light chain, respectively, to generate humanized mAbs. Constructs corresponding to the mAb sequences were used for transient transfection in 293E cells. Purified mAbs were analyzed for their ability to inhibit hLAG-3 binding to MHC class II molecules on Daudi cells.
With B1, the IC50 – broadly, the concentration that inhibits the measured activity by half – worked out at 1.35 nM.
Still for that read-out and setting: as for B2, the figure is 1.19 nM; as for B3, 0.28 nM.
Same read-out and setting: as for B4, the figure is 0.66 nM; as for B5, 0.9 nM.
The same measure, in the same setting: as for B6, the figure is 0.7 nM; as for B7, 1.59 nM; as for B8, 0.74 nM.
As for B9, the IC50 was found to be 4.18 nM.
The same measure, in the same setting: as for B10, the figure is 0.72 nM; as for B11, 1.59 nM.
On the same count and under the same terms, in the case of B12 it was 0.78 nM; in that of B13, 2.85 nM; in that of B14, 2.91 nM.
On the same count and under the same terms, as for B15, the figure is 1.59 nM; as for B16, 5.32 nM; as for B17, 0.98 nM.
Take B18: the IC50 is 6.77 nM.

A further experiment has as its target T1, human LAG-3(ECD)-mFc. In words: FACS blocking assay: mAb preincubated with LAG-3(ECD)-mFc (1 µg/mL), blocked ligand MHC class II on Daudi cells, PE anti-mouse Fc. On the procedure:
FIGS. 4A-4D show inhibition of human LAG-3 binding to MHC class II molecules by select anti-LAG-3 mAbs. An in vitro binding assay was performed using recombinant LAG-3(ECD)-mFc and Daudi cells which express human MHC class II molecules. […] The binding of LAG-3(ECD)-mFc to Daudi cells in the presence of anti-LAG-3 mAbs or a control mAb was analyzed by FACS.
as §1
In the case of B19, the “IC50 (read off the curve)” value is about 0.4 µg/mL.
Same read-out and setting: in the case of B20 it was about 0.4 µg/mL; in that of B21, about 0.06 µg/mL; in that of B22, about 0.1 µg/mL.
The same measure, in the same setting: in the case of B23 it was about 0.3 µg/mL; in that of B24, about 0.3 µg/mL; in that of B25, about 0.4 µg/mL.
